These results are taken from patent US20250163127A1.

Common to all, as to test: flow cytometry, transfected HEK293 cells
Background: Flow cytometry measures light scatter and fluorescence of single cells or particles in a stream.

The target in one test is T1, TIGIT (human) (UniProt Q495A1).
T1 sequence: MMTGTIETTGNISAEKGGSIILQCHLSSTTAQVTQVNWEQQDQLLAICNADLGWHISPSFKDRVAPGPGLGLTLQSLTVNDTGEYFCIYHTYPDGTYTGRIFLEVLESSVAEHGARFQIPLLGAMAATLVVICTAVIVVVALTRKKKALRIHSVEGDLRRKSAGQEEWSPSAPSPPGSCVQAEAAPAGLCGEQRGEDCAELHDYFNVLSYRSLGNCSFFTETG

Another test concerns the target T2, CD226 (human) (UniProt Q15762).
T2 sequence: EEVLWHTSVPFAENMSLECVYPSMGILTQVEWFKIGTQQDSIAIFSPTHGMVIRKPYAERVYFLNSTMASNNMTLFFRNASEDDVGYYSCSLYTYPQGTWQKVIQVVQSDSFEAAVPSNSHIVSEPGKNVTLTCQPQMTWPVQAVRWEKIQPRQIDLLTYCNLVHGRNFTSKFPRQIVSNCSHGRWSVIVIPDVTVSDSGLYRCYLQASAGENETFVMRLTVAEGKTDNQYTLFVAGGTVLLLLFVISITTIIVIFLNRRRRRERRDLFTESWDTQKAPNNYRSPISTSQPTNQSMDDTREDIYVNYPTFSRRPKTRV

The next test deals with T3, CD96 (human) (UniProt P40200).
T3 sequence: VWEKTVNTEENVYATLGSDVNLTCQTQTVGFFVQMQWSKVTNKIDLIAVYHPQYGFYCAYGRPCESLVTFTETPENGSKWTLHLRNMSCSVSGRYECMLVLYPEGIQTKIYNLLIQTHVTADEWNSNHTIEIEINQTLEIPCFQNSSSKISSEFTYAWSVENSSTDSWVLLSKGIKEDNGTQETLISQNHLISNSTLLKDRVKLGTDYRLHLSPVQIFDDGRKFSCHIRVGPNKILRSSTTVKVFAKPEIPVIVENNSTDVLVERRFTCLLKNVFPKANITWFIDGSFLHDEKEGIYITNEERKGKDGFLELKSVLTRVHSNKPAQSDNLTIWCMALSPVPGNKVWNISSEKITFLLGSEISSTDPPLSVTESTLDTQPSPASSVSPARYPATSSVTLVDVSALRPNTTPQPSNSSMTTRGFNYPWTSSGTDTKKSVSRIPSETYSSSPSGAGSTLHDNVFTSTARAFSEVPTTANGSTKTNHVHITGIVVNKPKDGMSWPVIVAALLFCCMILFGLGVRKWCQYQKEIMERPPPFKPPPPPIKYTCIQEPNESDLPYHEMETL

A further test concerns the target CD112R (human) (UniProt Q6DKI7).

Sequence of CD112R (human) (Q6DKI7 whole entry): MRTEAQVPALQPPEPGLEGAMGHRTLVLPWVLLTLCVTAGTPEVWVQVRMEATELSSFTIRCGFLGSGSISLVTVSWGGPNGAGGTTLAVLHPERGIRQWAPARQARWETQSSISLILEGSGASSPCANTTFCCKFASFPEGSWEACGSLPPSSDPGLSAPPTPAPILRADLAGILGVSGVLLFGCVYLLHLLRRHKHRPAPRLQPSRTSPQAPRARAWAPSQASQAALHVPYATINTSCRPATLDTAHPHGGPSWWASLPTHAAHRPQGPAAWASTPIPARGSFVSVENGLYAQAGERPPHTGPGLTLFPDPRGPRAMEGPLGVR

On to “CD155 variant IgV-Fc P18S, H59N, V75A, L79P, A81T, F91S, L104M, T107M (Fc fusion)”, for which the MFI at 25 nM in the test with TIGIT (human) was 800 MFI.

As for “CD155 variant IgV-Fc V9L, V11M, P18S, N35S, S54G, Q62K, L79P, L104M, T107M, V115M (Fc fusion)”, the MFI at 25 nM in the test with TIGIT (human) was determined as 3000 MFI.

In the test with TIGIT (human), “variant CD155 IgV-Fc, A13R, D23Y, E37P, S42P, Q62Y, A81E (Fc fusion)” gave an MFI at 100 nM of 4160.

For variant CD155 IgV-Fc, G111R (Fc fusion), the results for the MFI at 100 nM in the test with CD226 (human) and with CD96 (human) were 2790 and 3320, respectively.

Take variant CD155 IgV-Fc, L104E (Fc fusion): the MFI at 100 nM in the test with CD112R (human) came to 1800; with CD226 (human), 2260; with CD96 (human) it was 1560; with TIGIT (human) it was 3140. In addition, the figures for the fold increase to WT ECD with CD112R (human) and in the test with CD96 (human) were 1.01 fold and 0.02 fold, respectively.

Consider variant CD155 IgV-Fc, L104Q (Fc fusion), for which the MFI at 100 nM in the test with CD226 (human) came to 3790; in the test with CD96 (human) it was 1540.

The substance “variant CD155 IgV-Fc, P18L, E37S, Q62M, G80S, A81P, G99Y, S112N (Fc fusion)” had an MFI at 100 nM with CD96 (human) of 3340.

On to “variant CD155 IgV-Fc, P18S, V41A, S42G, T45G, L104N (Fc fusion)”, for which the MFI at 100 nM with TIGIT (human) was determined as 3820.

As for variant CD155 IgV-Fc, Q62F (Fc fusion), the MFI at 100 nM with CD226 (human) came to 2570; with CD96 (human), 2760; in the test with TIGIT (human), 2210.

Take “variant CD155 IgV-Fc, Q62F, L104E, G111R (Fc fusion)”: the values for the MFI at 100 nM in the test with CD112R (human), in the test with CD226 (human) and with CD96 (human) were 1700, 2040 and 1520, respectively.

With variant CD155 IgV-Fc, Q62Y (Fc fusion), the MFI at 100 nM was determined as 2620 with CD226 (human), 1830 with CD96 (human) and 2530 in the test with TIGIT (human).

As for variant CD155 IgV-Fc, S42A (Fc fusion), the values for the MFI at 100 nM with CD226 (human) and with CD96 (human) were 2190 and 1620, respectively.

As for “variant CD155 IgV-Fc, S42A, L104Q, G111R (Fc fusion)”, the MFI at 100 nM in the test with CD112R (human) worked out at 1820; in the test with CD226 (human), 1900; with CD96 (human), 1700.

In the case of “variant CD155 IgV-Fc, S42A, S52L, L104E, G111R (Fc fusion)”, the MFI at 100 nM was 1780 with CD112R (human), 1890 in the test with CD226 (human), 1610 with CD96 (human) and 2260 in the test with TIGIT (human). The fold increase to WT ECD was determined as 1 fold in the test with CD112R (human) and 0.02 fold with CD96 (human).

Turning to “variant CD155 IgV-Fc, S42A, S52Q, L104Q, G111R (Fc fusion)”, the results for the MFI at 100 nM with CD226 (human) and with CD96 (human) were 2160 and 1640, respectively.

On to variant CD155 IgV-Fc, S42C (Fc fusion), for which the MFI at 100 nM with CD112R (human) came out at 1680; with CD226 (human), 2100; with CD96 (human) it was 1590.

Consider “variant CD155 IgV-Fc, S42C, S52L (Fc fusion)”, for which the values for the MFI at 100 nM with CD226 (human) and with CD96 (human) were 2150 and 1480, respectively.

Turning to “variant CD155 IgV-Fc, S42C, S52M, Q62F (Fc fusion)”, the MFI at 100 nM worked out at 2080 with CD226 (human) and 1480 in the test with CD96 (human).

Regarding variant CD155 IgV-Fc, S42G (Fc fusion), the MFI at 100 nM came out at 1820 with CD112R (human), 2450 with CD226 (human), 1700 with CD96 (human) and 4840 in the test with TIGIT (human). Moreover, the fold increase to WT ECD was 1.02 fold with CD112R (human) and 0.02 fold with CD96 (human).

Consider “variant CD155 IgV-Fc, S42G, S52L, Q62F, L104Q (Fc fusion)”, for which the MFI at 100 nM with CD226 (human) was 2160; with CD96 (human) it was 1640.

In the test with CD226 (human), “variant CD155 IgV-Fc, S42G, S52Q, L104E, G111R (Fc fusion)” gave an MFI at 100 nM of 2020.

As for variant CD155 IgV-Fc, S42L (Fc fusion), the MFI at 100 nM came out at 1740 with CD112R (human), 2190 with CD226 (human) and 1620 with CD96 (human).

For “variant CD155 IgV-Fc, S42L, S52L, Q62F, L104Q (Fc fusion)”, the MFI at 100 nM with CD226 (human) was determined as 2640; with CD96 (human), 2320.

In the case of variant CD155 IgV-Fc, S42N (Fc fusion), the figures for the MFI at 100 nM in the test with CD112R (human), in the test with CD226 (human) and with CD96 (human) were 1700, 1910 and 1690, respectively.

As to “variant CD155 IgV-Fc, S42N, L104Q, G111R (Fc fusion)”, the MFI at 100 nM amounted to 2310 in the test with CD226 (human), 1960 with CD96 (human) and 2430 in the test with TIGIT (human).

As for “variant CD155 IgV-Fc, S42N, S52E, V57L, L104E (Fc fusion)”, the MFI at 100 nM with CD112R (human) stood at 1690; in the test with CD226 (human), 1740; with CD96 (human), 1540.

As for “variant CD155 IgV-Fc, S42N, S52Q, Q62F (Fc fusion)”, the figures for the MFI at 100 nM with CD226 (human), with CD96 (human) and in the test with TIGIT (human) were 2150, 1740 and 2400, respectively.

With variant CD155 IgV-Fc, S42Q (Fc fusion), the MFI at 100 nM with CD226 (human) was determined as 2230; with CD96 (human) it was 2140.

Regarding “variant CD155 IgV-Fc, S42V, S52E (Fc fusion)”, the MFI at 100 nM in the test with CD112R (human) is 1810; with CD226 (human), 2270; in the test with CD96 (human) it was 2530.

On to variant CD155 IgV-Fc, S42W (Fc fusion), for which the MFI at 100 nM with CD226 (human) is 2130; with CD96 (human), 2560; in the test with TIGIT (human), 2430.

Regarding “variant CD155 IgV-Fc, S42W, S52Q, V57L, Q62Y (Fc fusion)”, the results for the MFI at 100 nM with CD226 (human) and with CD96 (human) were 2140 and 1700, respectively.

Turning to “variant CD155 IgV-Fc, S42W, S52R, Q62Y, L104Q (Fc fusion)”, the MFI at 100 nM with CD112R (human) is 1820; with CD226 (human), 2300; with CD96 (human), 1760.

Regarding variant CD155 IgV-Fc, S52E (Fc fusion), the values for the MFI at 100 nM with CD226 (human), with CD96 (human) and with TIGIT (human) were 2600, 1800 and 2660, respectively.

variant CD155 IgV-Fc, S52L (Fc fusion): the MFI at 100 nM was 2680 with CD226 (human) and 2220 with TIGIT (human).

Turning to variant CD155 IgV-Fc, S52M (Fc fusion), the MFI at 100 nM with CD226 (human) came to 1900; with CD96 (human), 1610.

Take “variant CD155 IgV-Fc, S52M, L104Q (Fc fusion)”: the MFI at 100 nM with CD226 (human) came out at 2250; with CD96 (human), 1630; in the test with TIGIT (human), 2670.

As for “variant CD155 IgV-Fc, S52M, Q62Y (Fc fusion)”, the values for the MFI at 100 nM with CD112R (human), with CD226 (human) and with CD96 (human) were 1770, 2000 and 1650, respectively.

For “variant CD155 IgV-Fc, S52M, V57L (Fc fusion)”, the figures for the MFI at 100 nM in the test with CD226 (human) and with CD96 (human) were 2430 and 1860, respectively.

Turning to variant CD155 IgV-Fc, S52R (Fc fusion), the MFI at 100 nM is 3960 with CD226 (human), 4850 in the test with CD96 (human) and 4400 with TIGIT (human).

For “variant CD155 IgV-Fc, S52R, Q62F, L104Q, G111R (Fc fusion)”, the results for the MFI at 100 nM in the test with CD226 (human), with CD96 (human) and with TIGIT (human) were 3170, 2360 and 2970, respectively.

As for variant CD155 IgV-Fc, S52W (Fc fusion), the MFI at 100 nM turned out to be 1610 with CD112R (human), 2040 with CD226 (human) and 1710 with CD96 (human).

Regarding “variant CD155 IgV-Fc, S52W, L104E (Fc fusion)”, the MFI at 100 nM with CD226 (human) was determined as 1910; with CD96 (human), 1630.

With “variant CD155 IgV-Fc, T45Q, S52L, L104E, G111R (Fc fusion)”, the MFI at 100 nM with CD226 (human) came to 2390; in the test with CD96 (human) it was 1580; in the test with TIGIT (human), 2290.

With “variant CD155 IgV-Fc, T45Q, S52L, V57L, L104E (Fc fusion)”, the MFI at 100 nM with CD226 (human) was 5940; with CD96 (human), 1530; with TIGIT (human) it was 2860.

With “variant CD155 IgV-Fc, T45Q, S52Q (Fc fusion)”, the MFI at 100 nM came to 5790 in the test with CD226 (human), 2450 with CD96 (human) and 4810 with TIGIT (human).
